# Results taken from patent US20190031761A1 (SAMSUNG LIFE PUBLIC WELFARE FOUNDATION, published 2019).
# How the values were obtained:
# [1] = molecular target: T1, EGFRvIII recombinant protein with Fc tag, produced in-house (human); experiment: SPR (Biacore T200), antibody captured with human Fab capture kit, EGFRvIII antigen 0.25 nM to 256 nM as analyte
# T1 construct: Produced in Expi293 cells; also called EGFRvIII antigen
# [2] = molecular target: T2, EGFRvIII expressed in cells (vIII352T1 cells; 626 patient-derived cells) (human, UniProt P00533 25-1210); experiment: FACS on vIII352T1 cells (EGFRvIII only), Alexa Fluor 488 anti-human IgG
# T2 construct: whole, on cells; On vIII352T1 cells (EGFR-/EGFRvIII+) in FACS and cytotoxicity assays
# [3] = molecular target: EGFR expressed on cells (780 patient-derived cells; normal human epidermal keratinocytes) (human, UniProt P00533 25-1210); experiment: FACS on normal human epidermal keratinocytes (EGFR only), Alexa Fluor 488 anti-human IgG
# [4] = molecular target: T3, recombinant human EGFR/ErbB1 Fc chimera protein (R&D systems, 344-ER) (human, UniProt P00533 25-645); experiment: SPR (Biacore T200), B4A3 captured as ligand, rhEGFR-Fc as sample, 25 C, 1:1 Binding fit to sensorgrams that hardly leave the baseline
# T3 construct: Bought protein; also called EGFR recombinant protein; Fc part of the bought chimera not given
# T1 sequence (chain, as listed by the source limits assumed): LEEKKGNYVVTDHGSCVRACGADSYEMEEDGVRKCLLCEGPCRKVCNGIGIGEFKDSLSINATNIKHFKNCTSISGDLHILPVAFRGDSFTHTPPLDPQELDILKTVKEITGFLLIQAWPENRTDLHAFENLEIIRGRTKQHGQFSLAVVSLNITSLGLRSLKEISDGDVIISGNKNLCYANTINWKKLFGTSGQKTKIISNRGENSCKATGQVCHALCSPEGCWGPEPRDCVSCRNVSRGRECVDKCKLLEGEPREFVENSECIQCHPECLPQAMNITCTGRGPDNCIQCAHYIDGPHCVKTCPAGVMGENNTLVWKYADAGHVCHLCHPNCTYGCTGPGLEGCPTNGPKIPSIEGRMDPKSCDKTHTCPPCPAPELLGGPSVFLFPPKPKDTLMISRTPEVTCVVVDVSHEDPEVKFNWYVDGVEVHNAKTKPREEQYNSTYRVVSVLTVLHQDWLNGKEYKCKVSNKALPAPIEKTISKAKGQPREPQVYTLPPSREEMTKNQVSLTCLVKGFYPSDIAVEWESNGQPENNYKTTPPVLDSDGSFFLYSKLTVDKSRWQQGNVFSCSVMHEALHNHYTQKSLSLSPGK
binder,measurement,setting,value
"B4A3 antibody (human IgG1) (antibody, V domains shown, also called B4A3 IgG; B4A3 human IgG1) VH: EVQLLESGGGLVQPGGSLRLSCAASGFTFSNYYMSWVRQAPGKGLEWVSGTSPNGGSKYYADSVKGRFTISRDNSKNTLYLQMNSLRAEDTAVYYCAKGRRKLRATRFDYWGQGTLVTVSS VL: QSVLTQPPSASGTPGQRVTISCTGSSSNIGNNYVSWYQQHPGTAPKLLIYSDSNRPSGVPDRFSGSKSGTSASLAISGLRSEDEADYYCATWDASLSAYVFGGGTKLTVL",Kd,[1],4380 pM
same,koff,[1],0.000248 s⁻¹
same,kon,[1],56600 M⁻¹ s⁻¹
same,EC50 (read off the curve),[2],~40 pM
same,EC50 (read off the curve),[3],~30 pM
same,koff,[4],0.00801 s⁻¹
same,kon,[4],632 M⁻¹ s⁻¹
